This passage reports % dimer+ CD4+ cells and % dimer+ Vβ22+ cells results from US20220291215A1.

Test [1] addresses DP4/MAGE-A3243-258 TCR, clone R12C9.
The target is the same in test [2]. This is another data set of the same source.

In test [1], Control (peptide-MHC) returned a % dimer+ CD4+ cells of 0.4%. This substance also gave a % dimer+ Vβ22+ cells in test [2] of 0.1%.
